We go through one molecule from publication PMC10200994.

This experiment has as its target T1, STAT1 (unphosphorylated, wild-type), fluorophore fusion, P42224.
T1 chain: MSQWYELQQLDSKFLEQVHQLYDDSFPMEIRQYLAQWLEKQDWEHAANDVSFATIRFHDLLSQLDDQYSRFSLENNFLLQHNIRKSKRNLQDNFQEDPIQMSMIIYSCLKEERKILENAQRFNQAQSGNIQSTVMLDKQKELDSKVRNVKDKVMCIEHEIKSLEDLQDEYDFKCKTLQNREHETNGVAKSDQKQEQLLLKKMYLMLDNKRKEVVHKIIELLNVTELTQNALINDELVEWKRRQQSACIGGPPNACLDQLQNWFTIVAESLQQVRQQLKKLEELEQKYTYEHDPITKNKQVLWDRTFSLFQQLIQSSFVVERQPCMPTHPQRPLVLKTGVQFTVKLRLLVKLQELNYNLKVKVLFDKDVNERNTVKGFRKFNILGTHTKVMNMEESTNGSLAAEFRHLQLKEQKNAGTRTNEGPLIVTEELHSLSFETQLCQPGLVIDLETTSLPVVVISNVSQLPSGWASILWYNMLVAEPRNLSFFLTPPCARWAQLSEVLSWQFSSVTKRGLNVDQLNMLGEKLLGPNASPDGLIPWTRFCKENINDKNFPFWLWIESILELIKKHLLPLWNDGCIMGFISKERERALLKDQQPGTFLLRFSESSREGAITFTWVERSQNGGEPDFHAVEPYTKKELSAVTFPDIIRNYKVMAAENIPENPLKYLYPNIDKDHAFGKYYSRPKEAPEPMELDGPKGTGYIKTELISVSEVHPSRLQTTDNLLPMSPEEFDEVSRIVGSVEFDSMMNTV
In words: co-localization assay (relocalisation of a test protein by a compartment-targeted bait, fluorescence microscopy); HeLa cells co-expressing bait (STAT-NES or STAT-NLS, or wild-type STAT2 with its own export activity; green) and test protein without heterologous signal (red); no cytokine; fixed 20 h after transfection; Pearson correlation coefficient rP in cells with equimolar to 4-fold excess of bait. To be noted: remark: other sources report otherwise.

B1: STAT1 (unphosphorylated, wild-type), fluorophore fusion, P42224 1-750 (natural protein)
chain: MSQWYELQQLDSKFLEQVHQLYDDSFPMEIRQYLAQWLEKQDWEHAANDVSFATIRFHDLLSQLDDQYSRFSLENNFLLQHNIRKSKRNLQDNFQEDPIQMSMIIYSCLKEERKILENAQRFNQAQSGNIQSTVMLDKQKELDSKVRNVKDKVMCIEHEIKSLEDLQDEYDFKCKTLQNREHETNGVAKSDQKQEQLLLKKMYLMLDNKRKEVVHKIIELLNVTELTQNALINDELVEWKRRQQSACIGGPPNACLDQLQNWFTIVAESLQQVRQQLKKLEELEQKYTYEHDPITKNKQVLWDRTFSLFQQLIQSSFVVERQPCMPTHPQRPLVLKTGVQFTVKLRLLVKLQELNYNLKVKVLFDKDVNERNTVKGFRKFNILGTHTKVMNMEESTNGSLAAEFRHLQLKEQKNAGTRTNEGPLIVTEELHSLSFETQLCQPGLVIDLETTSLPVVVISNVSQLPSGWASILWYNMLVAEPRNLSFFLTPPCARWAQLSEVLSWQFSSVTKRGLNVDQLNMLGEKLLGPNASPDGLIPWTRFCKENINDKNFPFWLWIESILELIKKHLLPLWNDGCIMGFISKERERALLKDQQPGTFLLRFSESSREGAITFTWVERSQNGGEPDFHAVEPYTKKELSAVTFPDIIRNYKVMAAENIPENPLKYLYPNIDKDHAFGKYYSRPKEAPEPMELDGPKGTGYIKTELISVSEVHPSRLQTTDNLLPMSPEEFDEVSRIVGSVEFDSMMNTV
On to B1, for which the Pearson correlation coefficient rP (co-localization) was > 0.94.
